Assay results: paper PMC9288427, “The CIP2A-TOPBP1 complex safeguards chromosomal stability during mitosis” (Nature Communications, 2022)

Target: T1, GST-tagged CIP2A Armadillo repeat domain (ArmRD, aa 1-559) (human, UniProt Q8TCG1 1-559)
T1 construct: CIP2A, human, aa 1-559 (bases 1 through 1677 of the full length cDNA) cloned into pGEX-4T3; the results give the ArmRD as amino acids 1-560; the methods give the construct as aa 1-559; also called GST-ArmRP of CIP2A; GST-tagged ArmRD
Test: pull-down; 800 µg CHO protein extract with HA-TOPBP1 aa740-899 bound to anti-HA agarose beads (1 h, 4 °C), unbound fraction washed away, 5 µg purified GST-tagged ArmRD added for 90 min at 4 °C, washed 3 x 15 min with cold PBS; Western blot
Details: both partners purified

B1: HA-tagged TOPBP1 aa740-899 fragment expressed in ExpiCHO-S cells (domain or fragment, human, UniProt Q92547 740-899, looked up)
chain: NSTKEERSLETEITNGINLNSDTAEHPGTRLQTHRKTVVTPLDMNRFQSKAFRAVVSQHARQVAASPAVGQPLQKEPSLHLDTPSKFLSKDKLFKPSFDVKDALAALETPGRPSQQKRKPSTPLSEVIVKNLQLALANSSRNAVALSASPQLKEAQSEKE
notes: Same construct as m1, other host; source: ExpiCHO-S, transfected; not shown: HA, N-terminal, kept
- binding result: binds
